Test results reported in patent US20120288914A1, “CRYSTAL STRUCTURE OF GLYPHOSATE ACETYLTRANSFERASE (GLYAT) AND METHODS OF USE” (PIONEER HI BRED INTERNATIONAL INC., priority 2009, published 2012).

Key:
R7 GLYAT = assay: inhibition of R7 GLYAT with respect to glyphosate; format: biochemical, B. licheniformis
From the text: See PDB:2JDD for the atomic coordinates and structure factors of the X-ray crystal structure of the ternary complex of R7 GLYAT with AcCoA and 3PG and PDB:2JDC for the atomic coordinates and structure factors of the X-ray crystal structure of the binary complex of R7 GLYAT with oxidized CoA and sulfate bound in the glyphosate binding pocket. See Tables 11 and 12 for the atoms of the R7 GLYAT variant polypeptide and of AcCoA that contact 3PG (i.e., the substrate binding cavity) and the residues of R7 that contact AcCoA, respectively.

[1] = substrate glyphosate; cited from earlier work

Row | Molecule | mode of inhibition (R7 GLYAT) | Km [1]
1 | O=C(O)[C@H](O)COP(=O)(O)O [3-phosphoglycerate] | competitive inhibitor | –
2 | native GLYAT: naturally occurring glyphosate N-acetyltransferase from Bacillus licheniformis; SEQ ID NO: 3 (protein, listed as Bacillus licheniformis, ST401 GAT) MIEVKPINAEDTYEIRHRILRPNQPLEACMYETDLLGGAFHLGGYYRGKLISIASFHKAEHSELEGEEQYQLRGMATLEGYREQKAGSTLIRHAEELLRKKGADLLWCNARTSVSGYYEKLGFSEQGEVYDIPPIGPHILMYKKLT | – | 1270 µM
3 | R11: GLYAT variant from the eleventh round of DNA shuffling; SEQ ID NO: 2 (protein, R11 GLYAT variant polypeptide) MIEVKPINAEDTYDLRHRVLRPNQPIEACMFESDLTRSAFHLGGFYGGKLISVASFHQAEHSELQGKKQYQLRGVATLEGYREQKAGSSLVKHAEEILRKRGADMIWCNARTSASGYYRKLGFSEQGEVFDTPPVGPHILMYKRIT | – | 55 µM
4 | R7: GLYAT variant resulting from seven rounds of DNA shuffling of a native GLYAT polypeptide; SEQ ID NO: 1 (protein, R7 GLYAT variant polypeptide) MIEVKPINAEDTYELRHRILRPNQPIEACMFESDLLRGAFHLGGYYGGKLISIASFHQAEHSELQGQKQYQLRGMATLEGYREQKAGSSLIKHAEEILRKRGADLLWCNARTSASGYYKKLGFSEQGEVFDTPPVGPHILMYKRIT | – | 240 µM
